Results from patent US20170224799A1 (UNIVERSITY OF CONNECTICUT, published 2017).

T1: H-2 D^d (mouse, UniProt P01900 25-311, limits assumed)
T1 construct: construct not described
T1 sequence (MHC heavy, looked up): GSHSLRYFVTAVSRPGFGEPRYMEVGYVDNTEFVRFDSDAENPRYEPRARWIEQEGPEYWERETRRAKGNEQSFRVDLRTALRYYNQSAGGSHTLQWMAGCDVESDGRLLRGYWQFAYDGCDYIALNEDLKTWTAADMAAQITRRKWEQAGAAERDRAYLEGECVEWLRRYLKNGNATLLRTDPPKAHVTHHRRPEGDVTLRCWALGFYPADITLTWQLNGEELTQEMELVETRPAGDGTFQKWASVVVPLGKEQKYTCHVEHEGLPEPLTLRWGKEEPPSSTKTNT

T2: H-2 L^d (mouse, UniProt P01897 25-309, limits assumed)
T2 construct: construct not described
T2 sequence (MHC heavy, looked up): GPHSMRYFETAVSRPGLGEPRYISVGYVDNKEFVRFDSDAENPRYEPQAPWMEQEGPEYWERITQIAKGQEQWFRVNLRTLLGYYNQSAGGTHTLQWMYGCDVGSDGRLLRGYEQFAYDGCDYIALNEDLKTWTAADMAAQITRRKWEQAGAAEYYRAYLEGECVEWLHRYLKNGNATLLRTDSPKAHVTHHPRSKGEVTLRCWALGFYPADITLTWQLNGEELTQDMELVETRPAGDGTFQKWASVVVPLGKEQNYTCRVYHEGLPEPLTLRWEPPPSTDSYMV


Key:
H-2 K^d = H-2 K^d (mouse, UniProt P01902 22-305); assay: competition with radiolabeled standard peptide, purified H-2 K^d
Sequence of H-2 K^d (P01902 22-305): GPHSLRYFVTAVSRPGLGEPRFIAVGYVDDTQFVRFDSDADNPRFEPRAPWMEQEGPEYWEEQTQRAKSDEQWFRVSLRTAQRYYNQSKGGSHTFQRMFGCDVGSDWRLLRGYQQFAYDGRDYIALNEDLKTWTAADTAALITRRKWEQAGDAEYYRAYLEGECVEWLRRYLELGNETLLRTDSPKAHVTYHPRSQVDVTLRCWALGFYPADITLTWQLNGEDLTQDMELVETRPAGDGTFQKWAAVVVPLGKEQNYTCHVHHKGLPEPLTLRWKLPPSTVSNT

H-2 D^d = target: T1, H-2 D^d; assay: direct peptide-binding studies
H-2 L^d = target: T2, H-2 L^d; assay: direct peptide-binding studies

| IC50 (H-2 K^d) [nM] | binding result (H-2 D^d) | binding result (H-2 L^d) | Binder |
| --- | --- | --- | --- |
| 111 | – | – | LDMLQALCIP [Tnpo3.3 WT peptide LDMLQALCIP] |
| – | no binding | no binding | VFPGLMEL [Atxn10.2 Mut peptide VFPGLMEL] |
| 10000 | – | – | EYLDLQTQG [Zfp236.2 Mut peptide EYLDLQTQG] |
| – | no binding | no binding | GFHGCIHEVL [Slit3 Mut peptide GFHGCIHEVL] |
| 67 | – | – | SYMLQALCIP [Tnpo3.3 Mut peptide SYMLQALCIP] |
| – | no binding | no binding | DYVPMEQPR [Alkbh6.2 Mut peptide DYVPMEQPR] |
| – | no binding | no binding | ALKSEEKTL [Stau1.4 Mut peptide ALKSEEKTL] |
| 89 | – | – | LDMLQALC [Tnpo3.4 WT peptide LDMLQALC] |
| – | no binding | no binding | QVFPGLMEL [Atxn10.1 Mut peptide QVFPGLMEL] |
| 14900 | – | – | SYMLQALC [Tnpo3.4 Mut peptide SYMLQALC] |
| – | no binding | no binding | ELQGLLEDEL [Ccdc136 Mut peptide ELQGLLEDEL] |
